US9579367B2

Molecular target: tissue plasminogen activator (tPA)

B1: Xa-K (FXa chemically modified, via a histidine residue in its active site, with a C-terminal lysine tethered by a PEG4 spacer) (enzyme)
light: ANSFLEEMKKGHLERECMEETCSYEEAREVFEDSDKTNEFWNKYKDGDQCETSPCQNQGKCKDGLGEYTCTCLEGFEGKNCELFTRKLCSLDNGDCDQFCHEEQNSVVCSCARGYTLADNGKACIPTGPYPCGKQTLER
heavy: IVGGQECKDGECPWQALLINEENEGFCGGTILSEFYILTAAHCLYQAKRFKVRVGDRNTEQEEGGEAVHEVEVVIKHNRFTKETYDFDIAVLRLKTPITFRMNVAPACLPERDWAESTLMTQKTGIVSGFGRTHEKGRQSTRLKMLEVPYVDRNSCKLSSSFIITQNMFCAGYDTKQEDACQGDSGGPHVTRFKDTYFVTGIVSWGEGCARKGKYGIYTKVTAFLKWIDRSMKTRGLPKAKSHAPEVITSSPLK
modifications: active-site histidine (position 276 in Table A, UniProt P00742 numbering) covalently linked to (D)Phe-Pro-Arg-CH2- carrying a thiol-maleimide-PEG4 spacer with a C-terminally tethered lysine (Lys-mPEG4)
B1 showed a time to achieve 50% lysis of a plasma clot (turbidity, OD405nm) of 10 fold.
